Laboratory results as given in the domain aggregation screens of Martell et al. (2025).

Assay: soluble fraction after stress (log2 fold change); higher = more stays soluble; pooled small domains, quantitative proteomics
Conditions: stress: pH 4
Method in brief: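 How much of each domain stays soluble after acid stress, expressed as a fold change, is used to gauge aggregation propensity. Pooled custom libraries of small domains underwent pH 4 stress before high-throughput quantitative proteomics. A higher log2 value means more of the domain stayed soluble.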

Sequence	soluble fraction (log2)
HMGTYYTEIIAQLKKEIANGTWKLGERLPGELALAKQFNVSRSSIREALKALAYAGIVESKPGRGTFLLHV	-0.207
HMEKTKLPNLVDFTYRQAEALLQTHGLKVGKVERVPDVGQTVIKAKYKGKVISWGTELNKGEKIDLVIGKG	0.13
HMSNEWIEISAKTVDDAINEGLIRLGTTTDKMDVEVLEKESAGFLGFIGKHDAKIRVRFKEV	-0.608
HMRAAFEHLTIGQTVSGLVKSQARGVSLVEIEGQTVAMRLPQPVAVGDTLRLRFAGHMPQPVFLLDT	-0.0299
HMALLSDEERIATVFAARLGGYSHQEIYKLLQDRFGPSLPAAYSEKSVLTDLQTALSQVPSL	-1.41
HMSDPASLQRRLMSDPELTARILDSPFTRSLLDDPNLLRQMVNANPQLRRAMDANPQLRHAL	-0.261
HMDTNKMLIVNSISNGMKRLQELQDPQLAEIQKTFSGLDEQKATSAQLAQINNIINNRIAEIEG	0.191
HMKRSFGYIRLLPSKRYQASYIGPDSQRHAAPETFTRKMDAEGWLSAERRLIEWDQWTSPEQRAAQARLD	0.127
HMANAGKFDSDMGEKINFPGNRVSLTPSELEAARELAAIMGDRFFSQLIPTTSKVTVTEMLQSLK	-0.849
HMDLTPEEQMDLYRLLDSLPTEERTYLILHYFEERSFPEMAEILSMPEAKLKSRFYRILHRLRAHL	-1.11
HMRLDSELVSARLHRFMGTNRKPDGEIVEKIAAILEGHPIETLDAFLQSLNGRKIKSYGFFPTVLRREIAN	-0.114
HMDTNVKLLSPKQADFFASKLANNQNFSSKFAKVGEDMQPFIERISSELQQDISQVIVYMPYLLESGFKQ	-0.126
HMNQRQLQIKQMLDVAQEVFLKQLKTVFPDVSEMTIRRDLILLEDMGYAVRTHGGAVSINRF	-1.2
HMEQYFEDEELNDKFLEFLAMRKRVRKPVQTDRGMKMLLTSLHKLSGGDVGLMKQIIDQSLDNEWKKFVA	-1.12
HMQDNDLKNQIENVLRTYPDNVFTVEKIADVLRSHGSAAFKLIVQELASLERDKVAVVTEDGKFQLNPD	0.339
HMNDMWADITINANGKATLVVHTHEIKYLGLTGHLGKMEINGTAKEPVKDSSGDVVDYYFTFTDLDASMF	-0.623
HMSPLQLGNYNTLRITRFTDHGAYLDGGDVGEILMPKTYVLPEMKPGDEVRVFVYLDQEERLVGTTET	-1.44
HMDDGNHTEYIVLEKAKFYDEAGEYEEGRDLVLSFDKYQDNWKLVYTLGVFNKKLNNLEEARKYYKQALE	-0.846
HMPLDISDDSKAVLKLLKNDSNELNTVKSASGLSNKKWDKTIKELTKNKIVSVSKTEDGLYIHLI	0.336
HMVKDIEFSLPLEQDYYKVLISVKDSQGKRQVYEELHRAGDTVYAAVRYYGSGELEIHLNGKFYKTIK	-1.6
HMRIEYYDDEELDRYIGTPASGYREAAVEEFREILLTLDADDVPGWVRSLQLRGIEFPESLRPELYL	-1.5
HMLLTEETLPQLKQIVDEFPYFQIARMLYLKNLAVLNDIRFSVELKKMSIYVPDRRKLFTLIEGE	-0.69
HMLSGGEVKRIEIATILARKSGLMIFDEPEAGIDLWSFARLVETFEDIRSNTSGSLVIISHQ	-0.0926
HMIPDPPALGSNLHRERRRQQLSLDALAAASGVSKAMLSQIEADKVNPTIATMWKIAHALNIDFETLLRGE	0.172
HMQISDEGELSGIVRKIIDANPQSVADYKAGKKKAIGFLVGQIMIETKGRANPASVNELLIKKLE	0.105
HMSGPAEDLLAIEGMDKELAYELAARGIRTRDELADQSLDELEAVPGLDPVRAGQLIMAARAHLFENAGQ	-0.355
HMEEFIEHTVEKGEFLSAIIVAYNQHLKSKGFKSITTRDILNANPKLKPELIQVGQKIKIPRRKK	-0.0958
HMANPMFAEIKKVQKQLNEMGYQAGPADGLWGNKTENAVKLLLSDNNLKWDGTFDQNEIKIIEEIFLSND	-0.257

Sequence	soluble fraction (log2)
HMSTSIADNSSITYKVRKGDSLASIAKRHGVNINDVMRWNSVITKASQIQPGDMLTLYVRDS	≥ 0.43
HMNLGVIYSLKAEVRSEPNTFSTRLFEVHEGLKVSINQLENDWVEIELLDGKTGWISNDQIRLI	-0.772
HMISEWDAAYSYAKQYYEENGHLFVPKKYVTSEGAALGKWIWEQRDSYLGLSSYKISDKKIEMLEDIGMFW	-2.73
HMSAEGPALADWVVRDAHSIGAKITNSVAQLLIDRVGHNQQLLHNELQKLALVQTDISAELVKTMSHY	-0.0595
HMSQQEAQLNSLVKIYESMKPKDAARIFDTLDMDVLLDVVMRMKEARSAAVLAEMTPDRAKEVTLQLAD	-1.8
HMQNVKIKAEVKGEVISPGVYELDEESRIQDLIDASGGFSDKAYYDNINLSMKLKDEMVLVVYDKDKI	-1.35
HMELTDSLTENAKKLYSVLTTEPRHIDDLSEEAKLSSADTLAALTELELYSLVALSEGKHYYK	-1.05
HMSNMWVWSKLSGIQWMDAWEDRFHGNPNTVITRLKTNKTVRVEVYTETEQEALDIKKLFGGSIRKLV	0.103
HMVMSTDAELILEYLAKHQGEMEITDKSSPELIMDTFNMSKGAFKRALGSLYKSKTVVIESTKVLLNT	-0.0971
HMTVLPTEQDAKALVGLGEEEAAKIVEGNGWTYRIGSRDGEQFMLTEDFVTSRLTLGIEKAIVMTATI	-2.11
HMSSPVGIAQATTYVYVRAGHSMQAAKVGVLSPGEKVGVTGRSAQGFSEVVYNGVHRWVGSRYLSPT	≥ 0.43
HMIRQGTKQALLIEMLQRPEGASITEIVEATSWQAHTARGAISGALKKKLGLPITSEKHPERGTVYKL	-0.55
HMPEPAPALPAKTRVSIRRETGGIIWHEGAWTISPPIRAYDGRWYVAVTTARKGIEFVPVSSVIRS	-0.0262
HMQRYFLEEAYQPSEKFELSAEAFHHIVHVMRMKPKDRVYLAFSDQQVIIAEITEITEEKVYLTEIEKEE	-1.63
HMLTPQEIGSRLKLVRQGLQLKQQEVAEIIGTSQLKISKIEQGATVTTPDFLKLLAFYSQSVSLDILF	-0.652
HMDLYIILGLERSATLSDVRRAYRRLARKYHPGINPGDRNSASVFTRVSEAYQVLSDPEQRRRYDSR	-0.583
HMTQSQSLQSQFEQLEKAYQDNLHLLSPKQKLIIQEAGKIIQQLPQQAQIQAKVNLYQSLSAEISKESQQ	-0.107
HMSGEMGIIVAKRLPIRSEPDELATRAFVLKAGTRVKIVKHLNGWLEIVHDGKAGYVQDLEVYVRVIG	-0.445
HMGQISDDGALKKLASEVLAANPQALADWKAGKQQAVSFLVGQAMKASKGRGDAALLGELIRAALD	0.0477
HMSLEDYVIIKNKTVKVYETEFDGAPVVTSSSVGQKLILVEYNDNFAKILYRAKDGLDYVGYIKRKDVYVR	-1.04
HMDVLNPGDKAVTTASWLNFRTGPGMQNKVASVLARNTTVNIIEKSNEWYKVSLANGSTGYVHGMYLSKIT	0.105
HMLYITEIQKKIMDAFLVVANESNSGTRITMNEIANKVRMTPQAIYRKHFKSVIEISDTIRD	-1.17
HMLPDLQKAIDTFLYEVDSRINTSFEELIDKLNSKEEAVAFFLALLEAVRWGFIKAEQESNSINIKK	-1.49
HMKKVIKIEENVSLQKLAALMSLKVTDVLMRLLSMGMSGVNINSTIDADTAKILASEFGWTVED	-0.669
HMESWNRARILEKIRELHAQGVALNNASMRRLGYRGMMEAAARPQNFGSWEAAVRAAGIDYDRV	0.22
HMASAKTVAQSGTYKFAKTTAIKSSASDAASTVGTYYKGNTVNYNAKVTTNGQTWLRYTSYSGAQYYVKVS	0.218
HMENYQIETFVKFIEESTGEDGVAFEDLFQNFTSRPAVITMFLALLEALRRNSIRIFQKEEFSQILIYPK	-1.21
